# According to the DeepSol protein solubility set:
# Experiment: soluble on expression in E. coli; label from the status in PepcDB or PDB records
row,Sequence,soluble on expression in E. coli
1,KKQITVLDLHPGAGKTRRILPQIIKEAINRRLRTAVLAPTRVVAAEMAEALRGLPIRYQTSAVAREHNGNEIVDVMCHATLTHRLMSPHRVPNYNLFVMDEAHFTDPASIAARGYISTRVELGEAAAIFMTATPPGTSDPFPESNAPISDLQTEIPDRAWNSGYEWITEYIGKTVWFVPSVKMGNEIALCLQRAGKKVIQLNRKSYETEYPKCKNDDWDFVVTTDISEMGANFKASRVIDSRKSVKPTIITEGEGRVILGEPSAVTAASAAQRRGRTGRNPSQAGDEYCYGGHTNEDDSNCAHWTEARIMLDNINMPNGLIAQFYQPEREKVYTMDGEYRLRGEERKNFLELLRTADLPVWLAYKVAAAGVSYHDRRWCFDGPRTNTILEDNNEVEVITKLGERKILRPRWIDARVYSDHQALKSFKDFASGKR,soluble
2,SLYQVVLGKVSTLSAGQLPDALIAQAPQGVRRASWLAGRVLLSRALSPLPEMVYGEQGKPAFSAGAPLWFNLSHSGDTIALLLSDEGEVGCDIEVIRPRDNWRSLANAVFSLGEHAEMEAERPEQQLAAFWRIWTRKEAIVKQRGGSAWQIVSVDSTLPSALSVSQCQLDTLSLAVCTPTPFTLTPQTITKAL,not soluble
3,MRYIRQLCCVSLLCLSGSAVAANVRLQVEGLSGQLEKNVRAQLSTIESDEVTPDRRFRARVDDAIREGLKALGYYQPTIEFDLRPPPKKGRQVLIAKVTPGVPVLIGGTDVVLRGGARTDKDYLKLLDTRPAIGTVLNQGDYENFKKSLTSIALRKGYFDSEFTKAQLGIALGLHKAFWDIDYNSGERYRFGHVTFEGSQIRDEYLQNLVPFKEGDEYESKDLAELNRRLSATGWFNSVVVAPQFDKARETKVLPLTGVVSPRTENTIETGVGYSTDVGPRVKATWKKPWMNSYGHSLTTSTSISAPEQTLDFSYKMPLLKNPLEQYYLVQGGFKRTDLNDTESDSTTLVASRYWDLSSGWQRAINLRWSLDHFTQGEITNTTMLFYPGVMISRTRSRGGLMPTWGDSQRYSIDYSNTAWGSDVDFSVFQAQNVWIRTLYDRHRFVTRGTLGWIETGDFDKVPPDLRFFAGGDRSIRGYKYKSIAPKYANGDLKGASKLITGSLEYQYNVTGKWWGAVFVDSGEAVSDIRRSDFKTGTGVGVRWESPVGPIKLDFAVPVADKDEHGLQFYIGLGPELLEHHHHHH,not soluble
4,KGDDTYYIIFTSGTTGKPKGVQISHDNLLSFTNWMINAEAFATPHRPQMLAQPPYSFDLSVMYWAPTLALGGTLFALPKEITADFKQLFTTINQLPIGVWTSTPSFVDMAMLSDDFNAQQLPHLTHFYFDGEELTVKTAKKLRQRFPQARIVNAYGPTEATVALSALAVTDKML,not soluble
5,VIRPKTLGQKHYVDAIDTNTIVFGLGPAGSGKTYLAMAKAVQALQSKQVSRIILTRPAVEAGEKLGFLPGTLNEKIDPYLRPLHDALRDMVEPEVIPKLMEAGIVEVAPLAYMRGRTLNDAFVILDEAQNTTPAQMKMFLTRLGFGSKMVVTGDITQVDLPGGQKSGLRLVRHILRGVDDVHFSELTSSDVVRHQLVGHIVDAYEDYEEREARELKRKRQETRP,soluble
6,MSDPLTAQEQHKRRQAVRELMPRTPFIGGLGIVFERYEPDDVVIRLPFRTDLTNDGTYFHGGVIASVMDTAGAAAAWSNHDFDRGTRAATVAMSIQYTGAAKRCDLLCHARTARRRKELTFTEITATDPDGNIVAHAVQTYRIV,not soluble
7,MDCWISTDYQSRTGNMAYPCTNRKTADSYYLNRSYQLDRIAVLLFLRQGTNAAMAGYWSSKILATSESNIYMNIILNMGEYSKSQ,not soluble
8,ALEEVVRYLGPHNEIPLTLTRDSETGHFLLKHFLPILQQYHDTGNINETNPDSFPTDEERNKLLAHYGIAVNTDDRGELWIELEKCLQLLNMLNLFGLFQDAFEFEEPETDQDEEDPSHSKLPEN,soluble
9,MKVLKCGVMLLSILFVSQLHVYAEENRWTWPVEGQISDYFGTRHGKHYGIDVAAPIGTPVVAIQDGKVTRSYYSSSYGNVVFIKHGEYEAVYAHLNKRYVNQGDYISKGEKIGEVGNTGESRGAHLHLELHQGRWTMAKKNAMNPLLVLSEQRNEVVSSSLYVVQKGDTLVSIARKFSMTLKEIKEKNGLQQELIYPNQQLYVK,not soluble
10,MGSDKIHHHHHHMDARSLISLIPSLSAYKWYGKVTRVIGLTIEAKGPQASIGELCYILVGKQGTKVMAEVVGFKEERVLLMPLNGTAEIAPGSLVEGTGRPLQVKVGYSLIGHVIDGCGRPLTGEALPNGLTPYPTDNPPPNPISRPRIKEAMHLGVRAIDGLLTVGKGQRVGIFAGSGVGKSTLLAMLAKNAAADLNIIALIGERGREVKDFIERDLGEDGLRRSIIVVATSDQPALMRIKGAMTATALAEYFRDQGLHVNLMMDSVTRFAMAQREIGLAVGEPPTTKGYTPSVFALLPKLLERAGTNGKGSITGFYTVLVDGDDLNEPISDTVRGILDGHFVLDRELANKGHYPAINILKSVSRVMNDIVTDEQKRAAEHVRSLLSVYKESEDLINIGAYKRGSSKQIDEAIERQPEVISFLRQNTDEVAIAEHSIQQLIQAFGKGD,not soluble
11,MKQLTILGSTGSIGCSTLDVVRHNPDSFRVIALVAGKNVARMAEQCLEFSPRYAVMDDTSSAEQLKIMLQQHGSRTEVLSGQQAACEMAALDEVGHVMAAIVGAAGLLPTLAAIRAGKTILLANKESLVTCGRLFMDEVKRSNARLLPVDSEHNAIFQSLPQSIQHNLGYADLEQNGVTSILLTGSGGPFRETPMCDLAAMTPDQACRHPNWSMGRKISVDSATMMNKGLEYIEARWLFNASARQMEVLIHPQSVIHSMVRYQDGSVLAQLGEPDMRTPIAHTMAWPNRVTSGAQPLDFCKLSALTFSAPDYQRYPCLKLAMEAFEQGQAATTALNAANEITVAAFLAQQIRFTDIAGLNLAVLERMDLQEPASVEDVLQVDAIAREVARKQVIRLSR,not soluble
12,MSLSQPSFGLSNTATQGTLGQQSLVQPQNQQPQLAAQQLQSQQLSRYPQLIQEQILKCKESWDSNSYKTSLRSFVYNKVNETDAILYTKPTNVSQEEWDKAIENKPSSDLIPIQVFGFEGLNNRNQIQVENVAQARVILNQILDKTKQLQQSHSFETSARIMKVQARNAQIEKRILKLGTQLAILKNRRLPLTISEEKMWGQFQELLKSSNDPAGLGKTNELWARLAVLRERAKTISEQLDSKLVIIGEGHHHHHH,soluble
13,MAKNDFKFISYKDKVKKELDATAERGMTKVLMIIKAAAKSGAPVETGQLRDRIDYQLKAVGGKVVGIVGSPEQYAIYVEFGTGEFAENGSGRKGGWFFEGPDGEWHFTRGQKPQKFLRNAFRQNKEKVIEILGKEYGATFKGG,not soluble
14,MSQPPLLSGPGGRLLGAALLIGLLAGCGSVSTGNAGSGTVGTSTTSRADVMTFQPSSLPVSYVGETYNVQVGVTGGVGPYGYRLTAGTLPPGLKFAGGALSGTPTKAGSYSFAIQATDANLSTRVQEYTMNVDALPPLALKPTLPPGEIRGETRIPVTIQAPRAVRAARLSWDLGKDVQVTRVQPADAGSVVFWQQRGSVLTVDLGFRTVPRPDARIALITVKPAKAVTLKADALGYEARDGSGKMLVDKKRPGSEPVKPAEQPGDPKVDPKAADQKATDQKATDPKTVDPKTVTPADTVEGGPLPSPALPTPSLPPTLPPVTTPPANTPPVPTPTPPANQPAPAPAPQPAPAPQPTPPSGTGGALEHHHHHH,soluble
15,MRQYVCCNYNEKEIKMKKFHFTDTSLFWGFSEEEAESVLKCLSAVNKTYKKDEYIFRMGDTITSVGMVLTGSVQVIREDYWGNRQIIAVMGEGQLFGESYACAGGEPLMVSVMAEENTEVLFLEVGRLLTVCSMACRFHSRVIQNLLKVIAGRNLTLTTKIDHMSKKTIREKVLSYLSYQAEKQGKNRFEIPFNRQQLADYLAVDRSALSAELSKMQKEKLISYDRNHFILP,not soluble
16,MGSDKIHHHHHHMSNQFMFADETSQQTTKLPTEYWKILIVDDEPEVHAVTKLALNDFNFLGRGLKFYSAFSGEEAKRLIDEHPDAAILLLDVVMETDDAGLQVARYIREEADNHFTRIILRTGQPGQAPERTVIVNYDINDYKSKTELTAQKLFTAVMSSLRSYRDIMSIDQSRHGLEKIIAASANLYALQPMNSFVDGLVQQLSWVIGGAKQTLYATSNEDGSSYKVLAAHGEDSGVCVGQTLRSVIPSKALAELEHVIANHGSYYGDDFVLLYCRSHCRSHGSVLFIGGLSRALTADDHHVLQLFSENVQLAQDNVVCLEDSDQFLARLADQLMLHHASHFNGILEQNSEVRLAYAVAQKVAAEDAETTALAWSLFAQARPLLNCASDAAAAVETTCQQRVARSLRALGHGEHEATQNAHRALIERLERWDGLGLPEGKQGSDIAISTQVLLLTEQLLDWWESGISDSDIAVRLKDERGRYYSPKFLDVVIKSLPELRTI,not soluble
17,GMAQRSILVGQIWHEGHSFNPILTREKDFLFLRGEAVLEEARASSTALSGIVKTAEALGYRCVPSISARARPGGAIEQKVFDNIVDEFVQAARMQDFDAICLDLHGATLAEHTLDTEGYLLSRLREVVGNDIMISLALDLHAYLTPQMVEQATIITSFRTTPHADIEETGVRAMTLLDSLSNETRPPRAIYSLIPFLTRGNDETWSGPLAEIGAAADRWRARSDVVDLSIFNVHPFLDVPGYGQVVLAYDNGSGAAIDACRDLSDMLWKARDEFQEQLMSVDKALEIARTSRQLLALGDQGDRVMGAGPGDSPEIARVALEHFPGLKVAVPVYDPQAVRTAREAGENATVRMAVGGAFTHSVAPLERDWTVRKLCRARFTNIGPYMAGTEADFGDAAVLTCDAVTVIVTTMAPNVHDPAFYEAVGVPLASQQAVVARAANHYKLSFADIARTITVDTPGLTAFKPHQFPFTQARPFYPLDIVQWSFAPLECNKVG,soluble
18,MYYGIKALTVGRGESVRAKITTTIEEALLNKAKALAKQEGLSGANAIIERALELYFTSIQSEVWEKSLSSGWIKKLVLKRDSILYENIKCRKTMENCRPDDYTPESLKAKGWKKV,not soluble
19,MGSDKIHHHHHHVIRRAKPLLGTLVEIAAESLPHSGSEIPLEDKALEAAMTAAFSRVTHIGRLLSFHQQDSELNQLNRQPGTWIRVSQDSLRVLKLAKWLGKASNNLFNCTVGGEMMSRGALPAYLGMPLLLQGEWQDIEIKDNQVRLARPLILTLDGIAKGYAVDMAVSELRRAGVGGGWVNAGGDLRVFGSASLNVLCRGPKGLSQKICVSNMALASSRVSQTLSHDYPALLLPTGNVTDVNIDLESERIVSVSAPFAWRADALTKVAGYLSSDSAADKIAHLGGRLVSFE,not soluble
20,LNDAWFNSSVVRAMLTHTRVFGRYEGPEEKLFRTANYTEINCIDNYAPTEMIEVKVTDRSGAVVEGADIRFCIYNYSEFYPVVTKQSDAQGLASLRVGKGDMLIWAAKDGLFGYALSKADDRKPLAIALDNFEAQPEWADFKIVPPAGDPIPTTCSPQQISTNDARLLREDSIRAAYEATFATAEQSAALAAELGVDAPALTGILQTSRGNHADIEGFLRSVEAGKARQRAMDLLQTVSPKDLTDTPESLLKVIFRDMAEPAPEAASGEAYRHHLRYVASPRIYTEMLSSFVPTLRSILTAKEQEAMRQDPAELVRWVSSNIRLDTLYNTQYTTITPVGVWRAKRADLRSMGIFFVAMARTLGIPARYDEVTGKIQYSKELMPLRWSDVNLRESKTALKEQGSLALDYSPTALAPNPNYYSRFTVAELQPSGIIRTLYYDENEPTDLKTLFDRPKEMNAGHYFLVTGTRMASGSVLCRMRKFTVEAGKTARQPLELLHDSTDIQVIGSINAEQLYHDLSHAEDRSLLSTTGRGYFAMAILGAGQEPTNHALKDLEKVKADFEQWGRKLILLFPDADGHKRYKPADFPSLPETAVFGLDIQGRNAAMIREAANLPDATNLPIVIIADSFGRVVFVRQGYTIGLGEQMMQVIHRL,not soluble
21,GIQVRDCMIPRNEMIACELQTDIEVLKTTFIDTGLSKIIIYRQNIDDVVGYIHSSEMFRGQDWQKRINTTVFVPESMYANKLMRLLMQRKKSIAIVIDELGGTAGMVTLEDLVEEIFGDIEDEH,not soluble
